Each block holds one binder with its values, some of them ahead of it.
Columns and labels:
[1] = molecular target: T1, human Siglec 7 on cells (human, UniProt Q9Y286 19-467); test: cell-based or functional assay
[2] = molecular target: T2, recombinant human Siglec-7 protein (human, UniProt Q9Y286 19-353, limits assumed); test: SPR, DB7.2 and recombinant human Siglec-7 protein
[3] = molecular target: T3, Siglec 9 on 293T cells (UniProt Q9Y336 18-463, limits assumed); test: flow cytometry on Siglec 9 overexpressing HEK293T cells
T3 construct: whole, on cells
T3 sequence (Q9Y336 18-463 limits assumed): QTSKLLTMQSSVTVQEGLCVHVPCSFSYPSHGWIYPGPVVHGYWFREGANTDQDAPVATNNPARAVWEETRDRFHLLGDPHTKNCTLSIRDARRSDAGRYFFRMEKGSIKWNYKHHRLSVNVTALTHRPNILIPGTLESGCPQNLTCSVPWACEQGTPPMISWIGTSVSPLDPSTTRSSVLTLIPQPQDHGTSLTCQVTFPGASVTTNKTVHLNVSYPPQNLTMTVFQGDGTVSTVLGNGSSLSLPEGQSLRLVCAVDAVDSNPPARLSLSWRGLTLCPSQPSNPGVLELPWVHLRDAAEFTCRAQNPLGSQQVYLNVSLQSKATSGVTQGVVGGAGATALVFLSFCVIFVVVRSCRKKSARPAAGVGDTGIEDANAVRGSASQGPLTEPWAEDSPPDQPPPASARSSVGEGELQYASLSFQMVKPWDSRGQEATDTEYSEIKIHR
Excerpt: BD LSRII flow cytometer was used for staining of cells. BD FACS Aria cell sorter (BD Biosciences) was used for the sorting of Siglec 7/FSHR stably expressing cells. Anti-human antibodies used were directly fluorochrome conjugated. […] For the non-conjugated primary antibodies, PE-secondary anti-human (H+L) (Invitrogen), PE/AF647—secondary anti-human F(ab′)₂ (Jackson ImmunoResearch Laboratories Inc) and APC—secondary anti-mouse IgG (Poly4053, BioLegend) were used. Live/Dead Violet viability kit (Invitrogen) was used to exclude dead cells from analysis.
Three mAbs targeting Siglec 7 were sequenced and studied in more detail. […] (FIG. 10B). […] Cells were labeled with DAPI (nuclei), GFP (Siglec 7) and Texas Red (Anti-Siglec 7).

[4] = molecular target: T2, recombinant human Siglec-7 protein; test: SPR, titration of anti-Siglec-7 on recombinant human Siglec-7 protein
[5] = molecular target: T1, human Siglec 7 on cells; test: flow cytometry of human NK cells with sera of DMAb-electroporated mice, anti-human IgG

T2 sequence (Q9Y286 19-353 limits assumed): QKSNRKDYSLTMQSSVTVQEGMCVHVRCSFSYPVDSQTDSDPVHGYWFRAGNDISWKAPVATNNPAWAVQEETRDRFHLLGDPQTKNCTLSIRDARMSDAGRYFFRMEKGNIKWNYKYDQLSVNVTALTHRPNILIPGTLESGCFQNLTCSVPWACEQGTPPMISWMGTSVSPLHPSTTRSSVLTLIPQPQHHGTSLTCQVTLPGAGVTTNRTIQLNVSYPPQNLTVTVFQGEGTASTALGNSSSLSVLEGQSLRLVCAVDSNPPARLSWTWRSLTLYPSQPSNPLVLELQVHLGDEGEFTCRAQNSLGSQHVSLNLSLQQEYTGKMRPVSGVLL
T1 sequence (Q9Y286 19-467): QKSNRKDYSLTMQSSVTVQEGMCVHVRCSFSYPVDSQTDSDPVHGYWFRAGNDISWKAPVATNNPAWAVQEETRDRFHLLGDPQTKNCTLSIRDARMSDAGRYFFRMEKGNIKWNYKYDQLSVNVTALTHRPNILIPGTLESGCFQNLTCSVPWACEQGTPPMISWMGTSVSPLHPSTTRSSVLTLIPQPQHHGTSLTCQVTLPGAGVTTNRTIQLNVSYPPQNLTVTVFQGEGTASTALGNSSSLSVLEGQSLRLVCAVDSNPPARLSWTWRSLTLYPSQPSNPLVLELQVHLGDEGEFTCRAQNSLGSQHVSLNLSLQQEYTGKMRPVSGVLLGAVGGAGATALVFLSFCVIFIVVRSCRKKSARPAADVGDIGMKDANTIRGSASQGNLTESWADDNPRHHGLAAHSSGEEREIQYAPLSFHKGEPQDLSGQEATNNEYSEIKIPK

koff [2]: 3.6e-05 s⁻¹
kon [2]: 830000 M⁻¹ s⁻¹
t1/2 [2]: 5.33 h
binding result [3]: no binding
Kd [4]: 0.044 nM
B1: DB-S7-2 anti-Siglec 7 antibody (antibody, V domains shown)
VH: QVQLVESGGGVVQPGRSLRLSCAASGFTFRTDAMHWVRQAPGKGLEWVAVIWYDGSIKYHADSVKGRFTISRDNSKNTLYLEMNSLRAEDTAVYYCARDRSNSLDHWGQGILVSVSS
VL: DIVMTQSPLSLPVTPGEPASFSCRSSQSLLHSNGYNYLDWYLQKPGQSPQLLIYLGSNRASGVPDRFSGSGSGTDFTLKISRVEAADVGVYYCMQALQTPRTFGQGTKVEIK
notes: Raised in H2L2 mice (hybridoma clone in the first screens), then expressed as human IgG1 HC and LC from pVax1 in Expi293F cells or in mice (DMAb); also called DB7.2; DB-S7-2 DMAb
killing of OVISE cells with human PBMCs (cell index vs dose), IC50 [1]: 82.7 nM
killing of PEO4 cells with human PBMCs (xCELLigence), EC50 [1]: 68.9 nM

B2: DB7.2_TM Mod (antibody, V domains shown)
VH: B1 VH
VL: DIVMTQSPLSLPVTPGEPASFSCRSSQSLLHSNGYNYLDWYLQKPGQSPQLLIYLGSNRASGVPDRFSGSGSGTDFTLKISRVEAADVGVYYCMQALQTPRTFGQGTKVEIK
killing of OVISE cells with human PBMCs (cell index vs dose), IC50 [1]: 192 nM

binding result [3]: no binding
binding result [5]: binds
B3: DB-S7-1 anti-Siglec 7 antibody (antibody, V domains shown)
VH: B1 VH
VL: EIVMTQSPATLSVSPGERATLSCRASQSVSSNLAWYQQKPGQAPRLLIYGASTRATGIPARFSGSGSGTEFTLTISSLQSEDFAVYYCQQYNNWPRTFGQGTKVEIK
notes: Raised in H2L2 mice (hybridoma clone in the first screens), then expressed as human IgG1 HC and LC from pVax1 in Expi293F cells or in mice (DMAb); also called DB7.1; DB-S7-1 DMAb

binding result [3]: no binding
B4: DB-S7-7 anti-Siglec 7 antibody (antibody, V domains shown)
VH: B1 VH
VL: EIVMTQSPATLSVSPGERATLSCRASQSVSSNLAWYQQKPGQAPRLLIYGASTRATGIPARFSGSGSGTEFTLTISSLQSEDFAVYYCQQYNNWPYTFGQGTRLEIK
notes: Raised in H2L2 mice (hybridoma clone in the first screens), then expressed as human IgG1 HC and LC from pVax1 in Expi293F cells or in mice (DMAb); also called DB7.7; DB-S7-7 DMAb
